One molecule from patent US20180355056A1 (Novartis, published 2018) can be followed below.

The target in test [1] is T1, Human FXI zymogen (human, UniProt P03951 19-625).
T1 construct: also called huFXI; zymogen FXI
Briefly: SET KD compared with the BIACORE KD for the FXI catalytic domain. For orientation: Surface plasmon resonance follows binding to a sensor surface in real time, without labels.

Test [2] has as its target T2, Human FXI activated (human, UniProt P03951 19-387; P03951 388-625).
T2 construct: The activity assay used Kordia HFXIa 1111a; also called huFXIa
The test is described as above.

T2 sequence (P03951 19-387 C226S, chain 1 of 2): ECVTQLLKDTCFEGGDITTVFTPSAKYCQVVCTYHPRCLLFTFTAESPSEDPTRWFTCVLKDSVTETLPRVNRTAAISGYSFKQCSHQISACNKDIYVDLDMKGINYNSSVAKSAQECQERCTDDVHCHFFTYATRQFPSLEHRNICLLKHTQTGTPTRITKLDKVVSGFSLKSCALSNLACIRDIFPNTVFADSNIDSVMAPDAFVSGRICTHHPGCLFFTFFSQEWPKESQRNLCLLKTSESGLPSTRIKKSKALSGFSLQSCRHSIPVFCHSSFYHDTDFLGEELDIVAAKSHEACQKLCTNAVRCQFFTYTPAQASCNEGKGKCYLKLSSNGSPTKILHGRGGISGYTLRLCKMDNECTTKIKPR
T2 sequence (P03951 388-625, chain 2 of 2): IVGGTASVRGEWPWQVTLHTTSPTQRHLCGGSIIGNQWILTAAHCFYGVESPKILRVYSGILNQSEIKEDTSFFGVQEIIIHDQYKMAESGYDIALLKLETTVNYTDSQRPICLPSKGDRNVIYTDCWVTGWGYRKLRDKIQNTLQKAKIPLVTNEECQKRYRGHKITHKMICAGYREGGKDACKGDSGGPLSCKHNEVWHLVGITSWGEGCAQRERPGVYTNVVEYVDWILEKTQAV
T1 sequence (P03951 19-625 C226S): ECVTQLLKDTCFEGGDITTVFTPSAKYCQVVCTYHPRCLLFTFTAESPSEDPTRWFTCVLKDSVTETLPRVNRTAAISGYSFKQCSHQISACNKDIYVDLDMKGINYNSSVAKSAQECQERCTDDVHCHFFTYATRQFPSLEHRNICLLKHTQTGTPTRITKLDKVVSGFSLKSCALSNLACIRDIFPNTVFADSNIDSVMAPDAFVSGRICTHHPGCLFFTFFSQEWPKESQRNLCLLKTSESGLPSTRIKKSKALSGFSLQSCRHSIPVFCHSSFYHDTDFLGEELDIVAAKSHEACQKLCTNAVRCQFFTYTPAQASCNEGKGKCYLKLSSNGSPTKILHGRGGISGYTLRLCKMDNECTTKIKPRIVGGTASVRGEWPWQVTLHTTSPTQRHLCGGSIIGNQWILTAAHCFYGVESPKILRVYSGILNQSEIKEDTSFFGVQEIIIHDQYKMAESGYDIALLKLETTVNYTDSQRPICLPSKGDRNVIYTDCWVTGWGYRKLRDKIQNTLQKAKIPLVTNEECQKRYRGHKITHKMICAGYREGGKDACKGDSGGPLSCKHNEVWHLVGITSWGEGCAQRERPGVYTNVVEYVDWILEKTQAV

B1: NOV1401-Fab (Fab, V domains shown)
VH: QVQLLESGGGLVQPGGSLRLSCAASGFTFSTAAMSWVRQAPGKGLEWVSGISGSGSSTYYADSVKGRFTISRDNSKNTLYLQMNSLRAEDTAVYYCARELSYLYSGYYFDYWGQGTLVTVSS
VL: QSVLTQPPSASGTPGQRVTISCSGSSSNIGSNDVSWYQQLPGTAPKLLIYKNYNRPSGVPDRFSGSKSGTSASLAISGLQSEDEADYYCSAWDQRQFDVVFGGGTKLTVLG
notes: also called Fab portion of NOV1401
On to B1, for which the “fold higher affinity than to the catalytic domain” value stood at 300 times in test [1] and 66 times in test [2].
